# Biological target: T1, FcγRIa extracellular domain with C-terminal His tag (human, UniProt P12314 16-292)
# T1 construct: extracellular domain; Expressed in FreeStyle293 cells; analyte in Biacore; also called FcgRI; FcgRIa
# Assay: SPR Biacore, antibody captured, FcγRIa analyte; vs GpH7-B3/GpL16-k0 = 100
# T1 sequence (P12314 16-292): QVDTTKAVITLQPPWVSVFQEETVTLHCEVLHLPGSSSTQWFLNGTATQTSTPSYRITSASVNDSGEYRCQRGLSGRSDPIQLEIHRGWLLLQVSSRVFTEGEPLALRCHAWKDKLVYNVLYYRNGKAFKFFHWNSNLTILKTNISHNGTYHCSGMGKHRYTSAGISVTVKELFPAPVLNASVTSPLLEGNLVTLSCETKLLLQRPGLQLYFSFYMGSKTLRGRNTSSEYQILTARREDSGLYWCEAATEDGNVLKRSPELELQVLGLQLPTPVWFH
row,Binder,Ho/Con_1a
1,"GpH7-B3 variant P271_02A/GpL16-k0 (Ho Ab) (antibody, human IgG1, kappa, Ho Ab: alteration in both H chains) heavy: not shown light: DIVMTQSPLSLPVTPGEPASISCQASESLVHSNRNTYLHWYLQKPGQSPQLLIYKVSNRFSGVPDRFSGSGSGTDFTLKISRVEAEDVGVYYCSQNTHVPPTFGQGTKVEIERTVAAPSVFIFPPSDEQLKSGTASVVCLLNNFYPREAKVQWKVDNALQSGNSQESVTEQDSKDSTYSLSSTLTLSKADYEKHKVYACEVTHQGLSSPVTKSFNRGEC",102 relative (control = 100)
2,"GpH7-B3 variant E269_08L/GpL16-k0 (Ho Ab) (antibody, human IgG1, kappa, Ho Ab: alteration in both H chains) heavy: not shown light: DIVMTQSPLSLPVTPGEPASISCQASESLVHSNRNTYLHWYLQKPGQSPQLLIYKVSNRFSGVPDRFSGSGSGTDFTLKISRVEAEDVGVYYCSQNTHVPPTFGQGTKVEIERTVAAPSVFIFPPSDEQLKSGTASVVCLLNNFYPREAKVQWKVDNALQSGNSQESVTEQDSKDSTYSLSSTLTLSKADYEKHKVYACEVTHQGLSSPVTKSFNRGEC",101 relative (control = 100)
3,"GpH7-B3 variant E333_13S/GpL16-k0 (Ho Ab) (antibody, human IgG1, kappa, Ho Ab: alteration in both H chains) heavy: not shown light: DIVMTQSPLSLPVTPGEPASISCQASESLVHSNRNTYLHWYLQKPGQSPQLLIYKVSNRFSGVPDRFSGSGSGTDFTLKISRVEAEDVGVYYCSQNTHVPPTFGQGTKVEIERTVAAPSVFIFPPSDEQLKSGTASVVCLLNNFYPREAKVQWKVDNALQSGNSQESVTEQDSKDSTYSLSSTLTLSKADYEKHKVYACEVTHQGLSSPVTKSFNRGEC",101 relative (control = 100)
4,"GpH7-B3 variant E269_04F/GpL16-k0 (Ho Ab) (antibody, human IgG1, kappa, Ho Ab: alteration in both H chains) heavy: not shown light: DIVMTQSPLSLPVTPGEPASISCQASESLVHSNRNTYLHWYLQKPGQSPQLLIYKVSNRFSGVPDRFSGSGSGTDFTLKISRVEAEDVGVYYCSQNTHVPPTFGQGTKVEIERTVAAPSVFIFPPSDEQLKSGTASVVCLLNNFYPREAKVQWKVDNALQSGNSQESVTEQDSKDSTYSLSSTLTLSKADYEKHKVYACEVTHQGLSSPVTKSFNRGEC",102 relative (control = 100)
5,"GpH7-B3 variant E269_06M/GpL16-k0 (Ho Ab) (antibody, human IgG1, kappa, Ho Ab: alteration in both H chains) heavy: not shown light: DIVMTQSPLSLPVTPGEPASISCQASESLVHSNRNTYLHWYLQKPGQSPQLLIYKVSNRFSGVPDRFSGSGSGTDFTLKISRVEAEDVGVYYCSQNTHVPPTFGQGTKVEIERTVAAPSVFIFPPSDEQLKSGTASVVCLLNNFYPREAKVQWKVDNALQSGNSQESVTEQDSKDSTYSLSSTLTLSKADYEKHKVYACEVTHQGLSSPVTKSFNRGEC",101 relative (control = 100)
6,"GpH7-B3 variant A327_09D/GpL16-k0 (Ho Ab) (antibody, human IgG1, kappa, Ho Ab: alteration in both H chains) heavy: not shown light: DIVMTQSPLSLPVTPGEPASISCQASESLVHSNRNTYLHWYLQKPGQSPQLLIYKVSNRFSGVPDRFSGSGSGTDFTLKISRVEAEDVGVYYCSQNTHVPPTFGQGTKVEIERTVAAPSVFIFPPSDEQLKSGTASVVCLLNNFYPREAKVQWKVDNALQSGNSQESVTEQDSKDSTYSLSSTLTLSKADYEKHKVYACEVTHQGLSSPVTKSFNRGEC",102 relative (control = 100)
7,"GpH7-B3 variant A330_08L/GpL16-k0 (Ho Ab) (antibody, human IgG1, kappa, Ho Ab: alteration in both H chains; also called GpH7-B3-20-08L/GpL16-k0) heavy: not shown light: DIVMTQSPLSLPVTPGEPASISCQASESLVHSNRNTYLHWYLQKPGQSPQLLIYKVSNRFSGVPDRFSGSGSGTDFTLKISRVEAEDVGVYYCSQNTHVPPTFGQGTKVEIERTVAAPSVFIFPPSDEQLKSGTASVVCLLNNFYPREAKVQWKVDNALQSGNSQESVTEQDSKDSTYSLSSTLTLSKADYEKHKVYACEVTHQGLSSPVTKSFNRGEC",106 relative (control = 100)
8,"GpH7-B3 variant A330_09D/GpL16-k0 (Ho Ab) (antibody, human IgG1, kappa, Ho Ab: alteration in both H chains) heavy: not shown light: DIVMTQSPLSLPVTPGEPASISCQASESLVHSNRNTYLHWYLQKPGQSPQLLIYKVSNRFSGVPDRFSGSGSGTDFTLKISRVEAEDVGVYYCSQNTHVPPTFGQGTKVEIERTVAAPSVFIFPPSDEQLKSGTASVVCLLNNFYPREAKVQWKVDNALQSGNSQESVTEQDSKDSTYSLSSTLTLSKADYEKHKVYACEVTHQGLSSPVTKSFNRGEC",108 relative (control = 100)
9,"GpH7-B3 variant A330_14T/GpL16-k0 (Ho Ab) (antibody, human IgG1, kappa, Ho Ab: alteration in both H chains) heavy: not shown light: DIVMTQSPLSLPVTPGEPASISCQASESLVHSNRNTYLHWYLQKPGQSPQLLIYKVSNRFSGVPDRFSGSGSGTDFTLKISRVEAEDVGVYYCSQNTHVPPTFGQGTKVEIERTVAAPSVFIFPPSDEQLKSGTASVVCLLNNFYPREAKVQWKVDNALQSGNSQESVTEQDSKDSTYSLSSTLTLSKADYEKHKVYACEVTHQGLSSPVTKSFNRGEC",105 relative (control = 100)
10,"GpH7-B3 variant E269_15Y/GpL16-k0 (Ho Ab) (antibody, human IgG1, kappa, Ho Ab: alteration in both H chains) heavy: not shown light: DIVMTQSPLSLPVTPGEPASISCQASESLVHSNRNTYLHWYLQKPGQSPQLLIYKVSNRFSGVPDRFSGSGSGTDFTLKISRVEAEDVGVYYCSQNTHVPPTFGQGTKVEIERTVAAPSVFIFPPSDEQLKSGTASVVCLLNNFYPREAKVQWKVDNALQSGNSQESVTEQDSKDSTYSLSSTLTLSKADYEKHKVYACEVTHQGLSSPVTKSFNRGEC",100 relative (control = 100)
11,"GpH7-B3 variant E333_01G/GpL16-k0 (Ho Ab) (antibody, human IgG1, kappa, Ho Ab: alteration in both H chains) heavy: not shown light: DIVMTQSPLSLPVTPGEPASISCQASESLVHSNRNTYLHWYLQKPGQSPQLLIYKVSNRFSGVPDRFSGSGSGTDFTLKISRVEAEDVGVYYCSQNTHVPPTFGQGTKVEIERTVAAPSVFIFPPSDEQLKSGTASVVCLLNNFYPREAKVQWKVDNALQSGNSQESVTEQDSKDSTYSLSSTLTLSKADYEKHKVYACEVTHQGLSSPVTKSFNRGEC",100 relative (control = 100)
12,"GpH7-B3 variant G236_20W/GpL16-k0 (Ho Ab) (antibody, human IgG1, kappa, Ho Ab: alteration in both H chains) heavy: not shown light: DIVMTQSPLSLPVTPGEPASISCQASESLVHSNRNTYLHWYLQKPGQSPQLLIYKVSNRFSGVPDRFSGSGSGTDFTLKISRVEAEDVGVYYCSQNTHVPPTFGQGTKVEIERTVAAPSVFIFPPSDEQLKSGTASVVCLLNNFYPREAKVQWKVDNALQSGNSQESVTEQDSKDSTYSLSSTLTLSKADYEKHKVYACEVTHQGLSSPVTKSFNRGEC",104 relative (control = 100)

# More lines, now with the values ahead:
row,Ho/Con_1a,Binder
1,104 relative (control = 100),"GpH7-B3 variant I336_18N/GpL16-k0 (Ho Ab) (antibody, human IgG1, kappa, Ho Ab: alteration in both H chains) heavy: not shown light: DIVMTQSPLSLPVTPGEPASISCQASESLVHSNRNTYLHWYLQKPGQSPQLLIYKVSNRFSGVPDRFSGSGSGTDFTLKISRVEAEDVGVYYCSQNTHVPPTFGQGTKVEIERTVAAPSVFIFPPSDEQLKSGTASVVCLLNNFYPREAKVQWKVDNALQSGNSQESVTEQDSKDSTYSLSSTLTLSKADYEKHKVYACEVTHQGLSSPVTKSFNRGEC"
2,107 relative (control = 100),"GpH7-B3 variant I336_10E/GpL16-k0 (Ho Ab) (antibody, human IgG1, kappa, Ho Ab: alteration in both H chains) heavy: not shown light: DIVMTQSPLSLPVTPGEPASISCQASESLVHSNRNTYLHWYLQKPGQSPQLLIYKVSNRFSGVPDRFSGSGSGTDFTLKISRVEAEDVGVYYCSQNTHVPPTFGQGTKVEIERTVAAPSVFIFPPSDEQLKSGTASVVCLLNNFYPREAKVQWKVDNALQSGNSQESVTEQDSKDSTYSLSSTLTLSKADYEKHKVYACEVTHQGLSSPVTKSFNRGEC"
3,101 relative (control = 100),"GpH7-B3 variant K326_16H/GpL16-k0 (Ho Ab) (antibody, human IgG1, kappa, Ho Ab: alteration in both H chains) heavy: not shown light: DIVMTQSPLSLPVTPGEPASISCQASESLVHSNRNTYLHWYLQKPGQSPQLLIYKVSNRFSGVPDRFSGSGSGTDFTLKISRVEAEDVGVYYCSQNTHVPPTFGQGTKVEIERTVAAPSVFIFPPSDEQLKSGTASVVCLLNNFYPREAKVQWKVDNALQSGNSQESVTEQDSKDSTYSLSSTLTLSKADYEKHKVYACEVTHQGLSSPVTKSFNRGEC"
4,105 relative (control = 100),"GpH7-B3 variant I336_03V/GpL16-k0 (Ho Ab) (antibody, human IgG1, kappa, Ho Ab: alteration in both H chains) heavy: not shown light: DIVMTQSPLSLPVTPGEPASISCQASESLVHSNRNTYLHWYLQKPGQSPQLLIYKVSNRFSGVPDRFSGSGSGTDFTLKISRVEAEDVGVYYCSQNTHVPPTFGQGTKVEIERTVAAPSVFIFPPSDEQLKSGTASVVCLLNNFYPREAKVQWKVDNALQSGNSQESVTEQDSKDSTYSLSSTLTLSKADYEKHKVYACEVTHQGLSSPVTKSFNRGEC"
5,103 relative (control = 100),"GpH7-B3 variant K326_14T/GpL16-k0 (Ho Ab) (antibody, human IgG1, kappa, Ho Ab: alteration in both H chains) heavy: not shown light: DIVMTQSPLSLPVTPGEPASISCQASESLVHSNRNTYLHWYLQKPGQSPQLLIYKVSNRFSGVPDRFSGSGSGTDFTLKISRVEAEDVGVYYCSQNTHVPPTFGQGTKVEIERTVAAPSVFIFPPSDEQLKSGTASVVCLLNNFYPREAKVQWKVDNALQSGNSQESVTEQDSKDSTYSLSSTLTLSKADYEKHKVYACEVTHQGLSSPVTKSFNRGEC"
6,104 relative (control = 100),"GpH7-B3 variant I336_04F/GpL16-k0 (Ho Ab) (antibody, human IgG1, kappa, Ho Ab: alteration in both H chains) heavy: not shown light: DIVMTQSPLSLPVTPGEPASISCQASESLVHSNRNTYLHWYLQKPGQSPQLLIYKVSNRFSGVPDRFSGSGSGTDFTLKISRVEAEDVGVYYCSQNTHVPPTFGQGTKVEIERTVAAPSVFIFPPSDEQLKSGTASVVCLLNNFYPREAKVQWKVDNALQSGNSQESVTEQDSKDSTYSLSSTLTLSKADYEKHKVYACEVTHQGLSSPVTKSFNRGEC"
7,101 relative (control = 100),"GpH7-B3 variant K326_15Y/GpL16-k0 (Ho Ab) (antibody, human IgG1, kappa, Ho Ab: alteration in both H chains) heavy: not shown light: DIVMTQSPLSLPVTPGEPASISCQASESLVHSNRNTYLHWYLQKPGQSPQLLIYKVSNRFSGVPDRFSGSGSGTDFTLKISRVEAEDVGVYYCSQNTHVPPTFGQGTKVEIERTVAAPSVFIFPPSDEQLKSGTASVVCLLNNFYPREAKVQWKVDNALQSGNSQESVTEQDSKDSTYSLSSTLTLSKADYEKHKVYACEVTHQGLSSPVTKSFNRGEC"
8,104 relative (control = 100),"GpH7-B3 variant I336_01G/GpL16-k0 (Ho Ab) (antibody, human IgG1, kappa, Ho Ab: alteration in both H chains) heavy: not shown light: DIVMTQSPLSLPVTPGEPASISCQASESLVHSNRNTYLHWYLQKPGQSPQLLIYKVSNRFSGVPDRFSGSGSGTDFTLKISRVEAEDVGVYYCSQNTHVPPTFGQGTKVEIERTVAAPSVFIFPPSDEQLKSGTASVVCLLNNFYPREAKVQWKVDNALQSGNSQESVTEQDSKDSTYSLSSTLTLSKADYEKHKVYACEVTHQGLSSPVTKSFNRGEC"
9,104 relative (control = 100),"GpH7-B3 variant I336_06M/GpL16-k0 (Ho Ab) (antibody, human IgG1, kappa, Ho Ab: alteration in both H chains) heavy: not shown light: DIVMTQSPLSLPVTPGEPASISCQASESLVHSNRNTYLHWYLQKPGQSPQLLIYKVSNRFSGVPDRFSGSGSGTDFTLKISRVEAEDVGVYYCSQNTHVPPTFGQGTKVEIERTVAAPSVFIFPPSDEQLKSGTASVVCLLNNFYPREAKVQWKVDNALQSGNSQESVTEQDSKDSTYSLSSTLTLSKADYEKHKVYACEVTHQGLSSPVTKSFNRGEC"
10,103 relative (control = 100),"GpH7-B3 variant I336_02A/GpL16-k0 (Ho Ab) (antibody, human IgG1, kappa, Ho Ab: alteration in both H chains) heavy: not shown light: DIVMTQSPLSLPVTPGEPASISCQASESLVHSNRNTYLHWYLQKPGQSPQLLIYKVSNRFSGVPDRFSGSGSGTDFTLKISRVEAEDVGVYYCSQNTHVPPTFGQGTKVEIERTVAAPSVFIFPPSDEQLKSGTASVVCLLNNFYPREAKVQWKVDNALQSGNSQESVTEQDSKDSTYSLSSTLTLSKADYEKHKVYACEVTHQGLSSPVTKSFNRGEC"

# Source: patent US20180155451A1 (published 2018)
